Tested on: HCT-15 tumor-bearing mice
Assay: In-vivo and ex-vivo fluorescence imaging of EGF-Cy5.5, C-probe, EGF-probe
Description: The biodistribution of the EGF-probe intravenously administered to mice having HCT-15, HT29, Lovo or HCT-8 tumors was evaluated. First of all, 6-week-old Balb/c-nude mice (Nara-Biotec, Gyeonggi-do, Korea) were prepared and each cell was subcutaneously inoculated into the nude mice at the right flank at a concentration of 2×10^6 cells/mouse to generate tumors. […] At 24 hours after the administration of the EGF-probe, the mouse was imaged using an IVIS fluorescence imaging system. […] IVIS fluorescence imaging was conducted at 24 hours after the administration. Major organs and tumors were obtained and imaged with an IVIS imaging system. The fluorescence intensity of the organs and tumors was analyzed using the Living Image 2.50 software. […] The tumor tissue sections were counter-stained with DAPI and visualized with a confocal microscope.

B1: EGF-Cy5.5 (conjugate, UniProt P01133 23-1207, looked up)
Pro-epidermal growth factor: PQHWSCPEGTLAGNGNSTCVGPAPFLIFSHGNSIFRIDTEGTNYEQLVVDAGVSVIMDFHYNEKRIYWVDLERQLLQRVFLNGSRQERVCNIEKNVSGMAINWINEEVIWSNQQEGIITVTDMKGNNSHILLSALKYPANVAVDPVERFIFWSSEVAGSLYRADLDGVGVKALLETSEKITAVSLDVLDKRLFWIQYNREGSNSLICSCDYDGGSVHISKHPTQHNLFAMSLFGDRIFYSTWKMKTIWIANKHTGKDMVRINLHSSFVPLGELKVVHPLAQPKAEDDTWEPEQKLCKLRKGNCSSTVCGQDLQSHLCMCAEGYALSRDRKYCEDVNECAFWNHGCTLGCKNTPGSYYCTCPVGFVLLPDGKRCHQLVSCPRNVSECSHDCVLTSEGPLCFCPEGSVLERDGKTCSGCSSPDNGGCSQLCVPLSPVSWECDCFPGYDLQLDEKSCAASGPQPFLLFANSQDIRHMHFDGTDYGTLLSQQMGMVYALDHDPVENKIYFAHTALKWIERANMDGSQRERLIEEGVDVPEGLAVDWIGRRFYWTDRGKSLIGRSDLNGKRSKIITKENISQPRGIAVHPMAKRLFWTDTGINPRIESSSLQGLGRLVIASSDLIWPSGITIDFLTDKLYWCDAKQSVIEMANLDGSKRRRLTQNDVGHPFAVAVFEDYVWFSDWAMPSVMRVNKRTGKDRVRLQGSMLKPSSLVVVHPLAKPGADPCLYQNGGCEHICKKRLGTAWCSCREGFMKASDGKTCLALDGHQLLAGGEVDLKNQVTPLDILSKTRVSEDNITESQHMLVAEIMVSDQDDCAPVGCSMYARCISEGEDATCQCLKGFAGDGKLCSDIDECEMGVPVCPPASSKCINTEGGYVCRCSEGYQGDGIHCLDIDECQLGEHSCGENASCTNTEGGYTCMCAGRLSEPGLICPDSTPPPHLREDDHHYSVRNSDSECPLSHDGYCLHDGVCMYIEALDKYACNCVVGYIGERCQYRDLKWWELRHAGHGQQQKVIVVAVCVVVLVMLLLLSLWGAHYYRTQKLLSKNPKNPYEESSRDVRSRRPADTEDGMSSCPQPWFVVIKEHQDLKNGGQPVAGEDGQAADGSMQPTSWRQEPQLCGMGTEQGCWIPVSSDKGSCPQVMERSFHMPSYGTQTLEGGVEKPHSLLSANPLWQQRALDPPHQMELTQ
modifications: Pro-epidermal growth factor Cy5.5 dye label
in-vivo fluorescence imaging (tumor and background signals) (5 mg/kg intravenous, 24 hours, IVIS): strong fluorescence signal at the tumor site but nonspecific background signals were observed throughout the body
fluorescence of tumor tissue sections (cryosections, confocal): observed clearly

— patent publication US20240159744A1, “COLON CANCER DIAGNOSIS OR DETECTION COMPOSITION FOR PREDICTING RESPONSE TO DRUG, AND COMPOSITION FOR PREVENTING OR TREATING COLON CANCER” (priority 2020, published 2024)
